According to patent US20200038441A1 (NANTKWEST, published 2020):

Biological target: PD-L1 on SUP-B15 PD-L1+ cells (UniProt Q9NZQ7 19-290, limits assumed)
Assay: cell-based or functional assay

Sequence of PD-L1 on SUP-B15 PD-L1+ cells (Q9NZQ7 19-290 limits assumed): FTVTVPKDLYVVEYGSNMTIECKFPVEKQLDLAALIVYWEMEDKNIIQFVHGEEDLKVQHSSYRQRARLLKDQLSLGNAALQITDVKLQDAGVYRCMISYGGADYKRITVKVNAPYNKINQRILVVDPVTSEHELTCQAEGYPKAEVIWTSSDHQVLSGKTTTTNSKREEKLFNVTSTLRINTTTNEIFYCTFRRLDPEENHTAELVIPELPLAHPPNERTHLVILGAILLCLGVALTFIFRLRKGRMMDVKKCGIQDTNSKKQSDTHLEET

B1: PD-L1 CAR expressed on aTGFβ/PD-L1 t-haNK cells (other)
chain: MDWIWRILFLVGAATGAHSAQPANIQMTQSPSSVSASVGDRVTITCRASQDISRWLAWYQQKPGKAPKLLIYAASSLQSGVPSRFSGSGSGTDFALTISSLQPEDFATYYCQQADSRFSITFGQGTRLEIKGGGGSGGGGSGGGGSGGGGSEVQLVQSGGGLVQPGGSLRLSCAASGFTFSSYSMNWVRQAPGKGLEWVSYISSSSSTIQYADSVKGRFTISRDNAKNSLYLQMNSLRDEDTAVYYCARGDYYYGMDVWGQGTTVTVSSAAALSNSIMYFSHFVPVFLPAKPTTTPAPRPPTPAPTIASQPLSLRPEACRPAAGGAVHTRGLDFACFWVLVVVGGVLACYSLLVTVAFIIFWVRLKIQVRKAAITSYEKSDGVYTGLSTRNQETYETLKHEKPPQ
B1 was tested, and the “specific killing of SUP-B15 PD-L1+ target cells, 4 h cytotoxicity assay, effector to target ratio of 8” value was roughly 70%.
